Results as given in patent US20250262210A1 (TRUSTEES OF COLUMBIA UNIVERSITY IN THE CITY OF NEW YORK, published 2025).

Tests used:
Experiment in all cases: IP/MS, LZTR1 R810W-FLAG, U87
[1] = target: DIP2B (human, UniProt Q9P265 1-1576)
Method in brief: (§1)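 Gel slices were reduced with 5 mM DTT, alkylated with 11 mM IAA and digested overnight at 37° C. with trypsin. Peptides were analysed on an Orbitrap Fusion Tribrid by LC-MS/MS.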

[2] = target: TRIM16 (human, UniProt O95361 1-564, limits assumed)
Method in brief: as §1

[3] = target: MAP4K4 (human, UniProt O95819 2-1239, limits assumed)
Method in brief: as §1

[4] = target: IFT172 (human, UniProt Q9UG01 1-1749, limits assumed)
Method in brief: as §1

[5] = target: KIAA1217 (human, UniProt Q5T5P2 1-1943, limits assumed)
Method in brief: as §1

[6] = target: T1, FHOD1 (human, UniProt Q9Y613 2-1164)
T1 sequence (looked up): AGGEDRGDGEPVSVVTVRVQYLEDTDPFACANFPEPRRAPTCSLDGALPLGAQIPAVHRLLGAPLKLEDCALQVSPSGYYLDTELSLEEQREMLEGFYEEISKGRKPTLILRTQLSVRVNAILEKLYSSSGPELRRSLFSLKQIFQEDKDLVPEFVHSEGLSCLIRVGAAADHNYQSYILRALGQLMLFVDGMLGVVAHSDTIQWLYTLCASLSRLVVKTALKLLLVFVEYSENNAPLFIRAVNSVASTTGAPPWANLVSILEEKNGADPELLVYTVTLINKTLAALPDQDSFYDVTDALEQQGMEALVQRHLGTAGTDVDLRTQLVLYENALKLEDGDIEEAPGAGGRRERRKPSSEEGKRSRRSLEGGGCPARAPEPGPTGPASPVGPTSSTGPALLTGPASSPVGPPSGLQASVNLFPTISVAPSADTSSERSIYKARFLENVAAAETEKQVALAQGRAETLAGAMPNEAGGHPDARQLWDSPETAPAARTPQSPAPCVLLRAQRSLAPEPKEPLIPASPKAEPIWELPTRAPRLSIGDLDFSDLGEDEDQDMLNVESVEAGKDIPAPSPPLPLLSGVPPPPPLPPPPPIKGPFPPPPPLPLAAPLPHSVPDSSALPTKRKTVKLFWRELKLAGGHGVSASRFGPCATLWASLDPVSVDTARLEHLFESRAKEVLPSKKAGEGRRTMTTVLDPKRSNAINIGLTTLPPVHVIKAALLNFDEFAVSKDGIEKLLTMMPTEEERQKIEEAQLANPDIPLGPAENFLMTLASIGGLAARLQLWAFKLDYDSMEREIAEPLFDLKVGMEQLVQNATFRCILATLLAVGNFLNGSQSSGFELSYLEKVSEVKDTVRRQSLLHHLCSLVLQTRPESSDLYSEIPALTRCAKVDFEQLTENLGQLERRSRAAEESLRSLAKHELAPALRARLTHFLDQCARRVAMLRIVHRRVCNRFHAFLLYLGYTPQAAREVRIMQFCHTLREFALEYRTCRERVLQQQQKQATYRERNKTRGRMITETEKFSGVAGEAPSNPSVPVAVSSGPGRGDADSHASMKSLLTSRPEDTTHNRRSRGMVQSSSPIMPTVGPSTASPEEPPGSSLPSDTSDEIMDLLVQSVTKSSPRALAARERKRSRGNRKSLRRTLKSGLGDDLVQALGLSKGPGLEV
Method in brief: as §1

[7] = target: KDM5C (human, UniProt P41229 1-1560, limits assumed)
Method in brief: as §1

Measured: binding result

Chain of KIAA1217 (Q5T5P2 whole entry): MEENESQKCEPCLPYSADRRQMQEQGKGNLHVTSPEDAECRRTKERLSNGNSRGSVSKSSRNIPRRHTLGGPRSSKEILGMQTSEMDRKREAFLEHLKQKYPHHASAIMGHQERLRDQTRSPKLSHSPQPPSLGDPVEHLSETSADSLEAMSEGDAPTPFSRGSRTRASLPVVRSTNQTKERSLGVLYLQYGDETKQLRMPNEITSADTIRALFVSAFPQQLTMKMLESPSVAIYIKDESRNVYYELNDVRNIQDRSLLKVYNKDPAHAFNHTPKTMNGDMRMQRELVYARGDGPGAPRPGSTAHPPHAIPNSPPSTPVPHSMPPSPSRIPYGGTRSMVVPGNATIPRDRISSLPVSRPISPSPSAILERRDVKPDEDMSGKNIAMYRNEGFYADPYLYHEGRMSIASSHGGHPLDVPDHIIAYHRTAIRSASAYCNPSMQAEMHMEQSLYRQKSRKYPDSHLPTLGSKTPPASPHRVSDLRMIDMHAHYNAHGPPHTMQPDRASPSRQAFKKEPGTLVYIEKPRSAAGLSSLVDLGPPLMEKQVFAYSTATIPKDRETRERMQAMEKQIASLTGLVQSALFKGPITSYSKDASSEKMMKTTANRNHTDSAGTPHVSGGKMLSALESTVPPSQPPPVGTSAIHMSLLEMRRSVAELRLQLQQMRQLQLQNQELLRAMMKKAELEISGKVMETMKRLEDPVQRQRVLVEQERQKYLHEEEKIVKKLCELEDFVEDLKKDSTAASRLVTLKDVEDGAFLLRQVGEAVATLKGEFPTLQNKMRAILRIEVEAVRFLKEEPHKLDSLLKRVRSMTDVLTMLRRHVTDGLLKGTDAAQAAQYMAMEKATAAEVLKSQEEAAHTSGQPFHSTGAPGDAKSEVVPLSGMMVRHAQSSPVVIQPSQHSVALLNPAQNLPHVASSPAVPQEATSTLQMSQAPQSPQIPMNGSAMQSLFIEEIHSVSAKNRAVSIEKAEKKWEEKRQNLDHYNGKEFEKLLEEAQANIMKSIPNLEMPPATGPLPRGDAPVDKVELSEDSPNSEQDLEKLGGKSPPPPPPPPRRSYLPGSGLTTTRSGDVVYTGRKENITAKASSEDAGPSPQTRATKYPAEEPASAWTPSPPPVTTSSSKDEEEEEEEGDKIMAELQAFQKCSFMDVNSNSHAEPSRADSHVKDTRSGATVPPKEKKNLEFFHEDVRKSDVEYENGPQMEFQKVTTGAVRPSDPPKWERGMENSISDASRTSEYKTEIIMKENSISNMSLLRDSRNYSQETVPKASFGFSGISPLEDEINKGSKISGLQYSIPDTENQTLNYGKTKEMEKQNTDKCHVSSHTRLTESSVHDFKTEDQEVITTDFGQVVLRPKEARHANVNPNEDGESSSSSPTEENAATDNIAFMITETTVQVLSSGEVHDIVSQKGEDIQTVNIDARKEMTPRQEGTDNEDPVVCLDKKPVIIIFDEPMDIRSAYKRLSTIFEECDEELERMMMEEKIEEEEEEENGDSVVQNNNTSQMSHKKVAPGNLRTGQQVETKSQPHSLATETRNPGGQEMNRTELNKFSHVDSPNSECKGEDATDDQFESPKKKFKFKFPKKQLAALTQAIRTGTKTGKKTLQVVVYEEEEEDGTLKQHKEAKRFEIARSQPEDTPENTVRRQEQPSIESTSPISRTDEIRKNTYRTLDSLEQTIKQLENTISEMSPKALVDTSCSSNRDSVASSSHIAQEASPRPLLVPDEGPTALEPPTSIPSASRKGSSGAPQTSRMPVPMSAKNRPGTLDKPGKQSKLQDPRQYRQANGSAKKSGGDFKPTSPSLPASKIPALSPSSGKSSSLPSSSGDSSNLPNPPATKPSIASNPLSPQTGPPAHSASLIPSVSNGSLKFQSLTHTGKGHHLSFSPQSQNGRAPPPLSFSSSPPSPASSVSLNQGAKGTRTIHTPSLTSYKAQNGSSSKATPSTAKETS
Chain of IFT172 (Q9UG01 whole entry): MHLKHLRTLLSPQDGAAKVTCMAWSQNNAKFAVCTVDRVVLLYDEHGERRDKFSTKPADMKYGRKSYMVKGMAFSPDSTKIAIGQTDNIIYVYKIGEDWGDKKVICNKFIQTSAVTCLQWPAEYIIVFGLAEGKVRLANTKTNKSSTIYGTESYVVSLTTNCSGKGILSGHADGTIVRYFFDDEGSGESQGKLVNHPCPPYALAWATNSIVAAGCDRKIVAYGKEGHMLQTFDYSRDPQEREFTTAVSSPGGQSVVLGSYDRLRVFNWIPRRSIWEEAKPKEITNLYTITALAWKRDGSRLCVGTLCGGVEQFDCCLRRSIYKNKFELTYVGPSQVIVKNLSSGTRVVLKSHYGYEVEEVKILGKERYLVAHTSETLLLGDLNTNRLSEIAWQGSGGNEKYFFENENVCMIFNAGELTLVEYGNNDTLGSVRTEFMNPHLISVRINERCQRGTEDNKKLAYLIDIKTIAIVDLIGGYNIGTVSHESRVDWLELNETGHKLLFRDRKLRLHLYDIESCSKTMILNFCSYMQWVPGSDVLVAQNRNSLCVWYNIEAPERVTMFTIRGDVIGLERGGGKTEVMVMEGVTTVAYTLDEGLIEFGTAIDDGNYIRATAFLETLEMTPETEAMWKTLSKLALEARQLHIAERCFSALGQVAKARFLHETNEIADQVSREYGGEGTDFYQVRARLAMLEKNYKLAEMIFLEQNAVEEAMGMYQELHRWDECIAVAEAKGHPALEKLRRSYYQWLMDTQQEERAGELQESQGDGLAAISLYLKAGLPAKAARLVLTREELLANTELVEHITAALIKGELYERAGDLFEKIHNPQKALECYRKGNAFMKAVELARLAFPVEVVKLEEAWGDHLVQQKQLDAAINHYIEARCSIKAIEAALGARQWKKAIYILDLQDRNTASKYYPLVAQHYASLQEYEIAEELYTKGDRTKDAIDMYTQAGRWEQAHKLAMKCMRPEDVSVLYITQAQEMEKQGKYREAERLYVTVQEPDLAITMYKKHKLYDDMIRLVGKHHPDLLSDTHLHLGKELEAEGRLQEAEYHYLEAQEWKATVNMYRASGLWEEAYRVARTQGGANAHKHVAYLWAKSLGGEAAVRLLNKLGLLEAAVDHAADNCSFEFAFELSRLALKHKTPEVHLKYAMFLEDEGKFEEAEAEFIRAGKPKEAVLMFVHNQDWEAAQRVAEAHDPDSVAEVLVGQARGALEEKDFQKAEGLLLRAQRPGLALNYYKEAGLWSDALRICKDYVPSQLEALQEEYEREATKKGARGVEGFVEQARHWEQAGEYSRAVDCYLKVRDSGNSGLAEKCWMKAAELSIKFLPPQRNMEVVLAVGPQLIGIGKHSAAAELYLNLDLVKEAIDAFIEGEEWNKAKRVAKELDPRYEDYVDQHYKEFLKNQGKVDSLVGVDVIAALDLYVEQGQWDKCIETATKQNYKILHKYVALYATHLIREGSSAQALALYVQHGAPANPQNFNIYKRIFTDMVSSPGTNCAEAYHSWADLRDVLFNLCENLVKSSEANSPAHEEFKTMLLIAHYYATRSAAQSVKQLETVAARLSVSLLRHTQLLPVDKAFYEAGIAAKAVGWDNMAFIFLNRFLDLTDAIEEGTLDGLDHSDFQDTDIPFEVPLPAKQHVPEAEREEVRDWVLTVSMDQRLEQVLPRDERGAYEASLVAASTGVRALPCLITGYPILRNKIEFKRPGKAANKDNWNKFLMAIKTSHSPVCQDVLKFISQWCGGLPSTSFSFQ
Chain of MAP4K4 (O95819 2-1239 limits assumed): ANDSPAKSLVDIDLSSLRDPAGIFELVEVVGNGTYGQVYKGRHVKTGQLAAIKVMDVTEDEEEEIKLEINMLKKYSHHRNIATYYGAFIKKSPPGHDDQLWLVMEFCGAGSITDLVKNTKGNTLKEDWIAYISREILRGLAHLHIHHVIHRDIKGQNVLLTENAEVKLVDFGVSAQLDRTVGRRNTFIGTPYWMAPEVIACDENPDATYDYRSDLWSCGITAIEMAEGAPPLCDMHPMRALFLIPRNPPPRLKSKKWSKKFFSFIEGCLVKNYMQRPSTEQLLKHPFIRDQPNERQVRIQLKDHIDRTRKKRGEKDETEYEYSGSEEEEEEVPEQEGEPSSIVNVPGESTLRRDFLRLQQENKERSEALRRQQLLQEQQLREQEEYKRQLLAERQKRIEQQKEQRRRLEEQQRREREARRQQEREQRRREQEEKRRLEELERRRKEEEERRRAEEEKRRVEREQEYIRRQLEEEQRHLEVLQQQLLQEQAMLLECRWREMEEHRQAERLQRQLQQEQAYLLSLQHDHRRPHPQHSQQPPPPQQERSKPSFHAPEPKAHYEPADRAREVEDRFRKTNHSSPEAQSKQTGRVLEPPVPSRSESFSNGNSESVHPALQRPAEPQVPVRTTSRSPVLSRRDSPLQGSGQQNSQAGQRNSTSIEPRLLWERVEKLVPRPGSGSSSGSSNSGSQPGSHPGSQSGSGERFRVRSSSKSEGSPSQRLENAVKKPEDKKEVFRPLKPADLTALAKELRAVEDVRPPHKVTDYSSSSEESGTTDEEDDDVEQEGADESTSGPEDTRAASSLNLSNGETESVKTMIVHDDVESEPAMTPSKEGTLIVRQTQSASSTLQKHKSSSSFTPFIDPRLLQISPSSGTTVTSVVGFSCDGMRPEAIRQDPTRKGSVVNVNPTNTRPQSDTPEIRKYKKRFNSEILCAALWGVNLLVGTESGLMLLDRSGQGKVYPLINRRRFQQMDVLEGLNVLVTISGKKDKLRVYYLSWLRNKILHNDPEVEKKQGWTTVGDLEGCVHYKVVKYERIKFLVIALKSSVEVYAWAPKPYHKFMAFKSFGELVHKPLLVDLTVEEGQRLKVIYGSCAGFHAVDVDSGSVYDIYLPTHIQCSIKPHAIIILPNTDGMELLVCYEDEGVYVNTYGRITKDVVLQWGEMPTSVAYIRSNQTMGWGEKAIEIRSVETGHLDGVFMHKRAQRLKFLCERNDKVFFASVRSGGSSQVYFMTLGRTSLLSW

B1: LZTR1 R810W-FLAG (other, human, UniProt Q8N653 1-840, looked up)
chain: MAGPGSTGGQIGAAALAGGARSKVAPSVDFDHSCSDSVEYLTLNFGPFETVHRWRRLPPCDEFVGARRSKHTVVAYKDAIYVFGGDNGKTMLNDLLRFDVKDCSWCRAFTTGTPPAPRYHHSAVVYGSSMFVFGGYTGDIYSNSNLKNKNDLFEYKFATGQWTEWKIEGRLPVARSAHGATVYSDKLWIFAGYDGNARLNDMWTIGLQDRELTCWEEVAQSGEIPPSCCNFPVAVCRDKMFVFSGQSGAKITNNLFQFEFKDKTWTRIPTEHLLRGSPPPPQRRYGHTMVAFDRHLYVFGGAADNTLPNELHCYDVDFQTWEVVQPSSDSEVGGAEVPERACASEEVPTLTYEERVGFKKSRDVFGLDFGTTSAKQPTQPASELPSGRLFHAAAVISDAMYIFGGTVDNNIRSGEMYRFQFSCYPKCTLHEDYGRLWESRQFCDVEFVLGEKEECVQGHVAIVTARSRWLRRKITQARERLAQKLEQEAAPVPREAPGVAAGGARPPLLHVAIREAEARPFEVLMQFLYTDKIKYPRKGHVEDVLLIMDVYKLALSFQLCRLEQLCRQYIEASVDLQNVLVVCESAARLQLSQLKEHCLNFVVKESHFNQVIMMKEFERLSSPLIVEIVRRKQQPPPRTPLDQPVDIGTSLIQDMKAYLEGAGAEFCDITLLLDGHPRPAHKAILAARSSYFEAMFRSFMPEDGQVNISIGEMVPSRQAFESMLRYIYYGEVNMPPEDSLYLFAAPYYYGFYNNRLQAYCKQNLEMNVTVQNVLQILEAADKTQALDMKRHCLHIIVHQFTKVSKLPTLWSLSQQLLLDIIDSLASHISDKQCAELGADI
notes: Stably expressed in U87 cells by lentivirus; also called LZTR1-FLAG-R810W; LZTR1 RW; not shown: FLAG tag
binds: all assays above
